Measured values published in patent publication US20150004637A1, “SYSTEMS AND METHODS FOR IMAGING AT HIGH SPATIAL AND/OR TEMPORAL PRECISION” (President and Fellows of Harvard College, priority 2011, published 2015).
Read-outs that look alike come from different tables or passages of the source.

B1: Archaerhodopsin 3 (protein)
chain: MDPIALQAGYDLLGDGRPETLWLGIGTLLMLIGTFYFLVRGWGVTDKDAREYYAVTILVPGIASAAYLSMFFGIGLTEVTVGGEMLDIYYARYADWLFTTPLLLLDLALLAKVDRVTIGTLVGVDALMIVTGLIGALSHTAIARYSWWLFSTICMIVVLYFLATSLRSAAKERGPEVASTFNTLTALVLVLWTAYPILWIIGTEGAGVVGLGIETLLFMVLDVTAKVGFGFILLRSRAILGDTEAPEPSAGADVSAAD
modifications: Halorubrum sodomense
notes: Microbial rhodopsin from Halorubrum sodomense, light-driven proton pump used as fluorescent voltage indicator; experiments used an Arch-eGFP fusion
B2: Arch D95N: Archaerhodopsin 3 with aspartic acid 95 mutated to asparagine; non-pumping voltage indicator (protein, UniProt P96787 7-258, looked up, variant D95N)
Archaerhodopsin-3: QAGYDLLGDGRPETLWLGIGTLLMLIGTFYFLVRGWGVTDKDAREYYAVTILVPGIASAAYLSMFFGIGLTEVTVGGEMLDIYYARYANWLFTTPLLLLDLALLAKVDRVTIGTLVGVDALMIVTGLIGALSHTAIARYSWWLFSTICMIVVLYFLATSLRSAAKERGPEVASTFNTLTALVLVLWTAYPILWIIGTEGAGVVGLGIETLLFMVLDVTAKVGFGFILLRSRAILGDTEAPEPSAGADVSAAD

Tests used:
[1] = pKa of the Schiff base from absorption spectra versus pH; assay type: physicochemical; details: singular value decomposition on absorption spectra, pH 6-11
Description: FIG. 8C illustrates absorption spectra recorded on purified protein between about pH 6 and about pH 11. Singular Value Decomposition of absorption spectra between 400-750 nm was used to calculate the fraction of the SB in the protonated state as a function of pH. The result was fit to a Hill function to determine the pKa of the SB.
(§1) (2) Spectroscopic characterization of Arch WT and D95N. The absorption spectra of fractionated E. coli membranes containing Arch WT and D95N were determined using an Ocean Optics USB4000 spectrometer with a DT-MINI-2-GS light source (FIG. 8). The peak extinction coefficients of microbial rhodopsins vary across rhodopsin types from 48,000 to 63,000 M^−1 cm^−1. Due to the high homology between Arch and bacteriorhodopsin (BR), the BR extinction coefficient, 63,000 M^−1 cm^−1, was used for Arch. […] For Arch WT, 633 nm was in the tail of the absorption while for Arch D95N 633 nm lay halfway down the shoulder. The relative extinction coefficients of Arch WT and D95N at 633 nm was independent of the choice to use BR as the reference for the peak extinction coefficient. Absorption spectra for Arch WT and D95N were measured as a function of pH between pH 6 and 11.

[2] = test system: HEK cells; assay: Frequency response and noise of membrane potential estimated from fluorescence; assay type: cell-based; details: for noise / accuracy of voltage estimated from fluorescence: HEK cells, after calibration with voltage ramp −150 to +150 mV; for Noise in V̂FL: frequencies f≧0.1 Hz in HEK cells
Description: For the data of FIG. 9, a chirped sine wave with an amplitude of about 50 mV and frequency from about 1 Hz to about 1 kHz was applied to the cell. Membrane potential VFL was determined from fluorescence and the Fourier transform of VFL was calculated. The uptick at about 1 kHz is an artifact of electronic compensation circuitry. […] The noise figures reported here are specific to our imaging system and serve primarily as an indicator of the possible sensitivity of Arch.
(8) Frequency-dependent response functions of Arch WT and D95N. Test waveforms consisted of a concatenated series of sine waves, each of duration 2 s, amplitude 100 mV, zero mean, and frequencies uniformly spaced on a logarithmic scale between 1 Hz and 1 kHz (31 frequencies total). The waveforms were discretized at 10 kHz and applied to the cell, while fluorescence movies were acquired at a frame rate of 2 kHz.
The model parameters for extracting VFL(t) were calculated from the fluorescence response to low frequency voltages. These parameters were then used to calculate an estimated voltage at all frequencies.
The applied voltage was downsampled to 2 kHz to mimic the response of a voltage indicator with instantaneous response. For each applied frequency, the Fourier transform of VFL(t) was calculated and divided by the Fourier transform of the downsampled V(t). The amplitude of this ratio determined the response sensitivity. It was important in some cases to properly compensate pipette resistance and cell membrane capacitance to obtain accurate response spectra.
The power spectrum of VFL(t) under constant V=0 was also measured to enable calculations of signal-to-noise ratio for any applied V(t).
In these examples, a measure of the performance of a voltage indicator which reported the information content of the fluorescence signal was used, including an algorithm to infer membrane potential from a series of fluorescence images. The accuracy with which the estimated membrane potential matched the true membrane potential was used (as reported by patch clamp recording) as a measure of indicator performance.
The estimated membrane potential, VFL(t), was determined from the fluorescence in two steps. First a model was trained relating membrane potential to fluorescence at each pixel. A highly simplified model that the fluorescence signal, Si(t), at pixel i and time t, is given by: […]

[3] = Spectroscopic characterization of Arch WT and D95N (absorption, emission, extinction, quantum yield); assay type: physicochemical; details: for λmax em: Excitation at λ=532 nm; for ε633: assuming same peak extinction coefficient as Bacteriorhodopsin, 63,000 M^−1 cm^−1; for QY (fluorescence quantum yield): comparison to Alexa 647, excitation at λ=633 nm; for λmax abs: neutral pH
Description: Arch and its D95N mutant were expressed in E. coli. Briefly, E. coli (strain BL21, pet28b plasmid) was grown in 1 L of LB with 100 micrograms/mL kanamycin, to an O.D 600 of 0.4 at 37° C. All-trans retinal (5 micromolar) and inducer (IPTG 0.5 mM) were added and cells were grown for an additional 3.5 hours in the dark. Cells were harvested by centrifugation and resuspended in 50 mM Tris, 2 mM MgCl2 at pH 7.3 and lysed with a tip sonicator for 5 minutes. The lysate was centrifuged and the pellet was resuspended in PBS supplemented with 1.5% dodecyl maltoside (DM). The mixture was homogenized with a glass/Teflon Potter Elvehjem homogenizer and centrifuged again. The solubilized protein in the supernatant was used for experiments.
as §1
The fluorescence emission spectra of Arch WT and D95N were determined using illumination with a 100 mW, 532 nm laser (Dragon Lasers, 532GLM100) or a 25 mW, 633 nm HeNe laser (Spectra-Physics) (FIG. 8). Scattered laser light was blocked with a 532 nm Raman notch filter (Omega Optical, XR03) or a 710/100 emission filter (Chroma), and fluorescence was collected perpendicular to the illumination with a 1000 micron fiber, which passed the light to an Ocean Optics QE65000 spectrometer. Spectra were integrated for 2 seconds. Arch WT and D95N both had emission maxima at 687 nm.
The fluorescence quantum yields of Arch WT and D95N were determined by comparing the integrated emission intensity to emission of a sample of the dye Alexa 647. Briefly, the concentrations of micromolar solutions of dye and protein were determined using a visible absorption spectrum. The extinction coefficients of 270,000 M^−1cm^−1 for Alexa 647 and 63,000 M^−1 cm^−1 for Arch WT and D95N were used, assuming that these microbial rhodopsins have the same extinction coefficient as bacteriorhodopsin. […] The fluorescence emission spectra of dye and protein samples were measured with 633 nm excitation. The quantum yield was then determined by the formula
where Fl is the integrated fluorescence from 660 to 760 nm, epsilon (∈) is the extinction coefficient at 633 nm and c is the concentration.

[4] = test system: HEK cells; assay: Photocurrents under voltage clamp; assay type: cell-based; details: for Photocurrent: HEK cells clamped at V=0, 640 nm, 1800 W/cm^2
Description: Measurements of photocurrents were performed on HEK cells held in voltage clamp at 0 mV while being exposed to brief (200 ms) pulses of illumination at 640 nm at an intensity of 1800 W/cm^2.

Molecule	pKa of SB [1]	noise / accuracy of voltage estimated from fluorescence [2]	Noise in V̂FL [2]	fluorescence oscillation amplitude retained relative to low-frequency amplitude ([2]; sinusoidal membrane potential, f≈1 kHz)	shot-noise limited noise floor in V̂FL ([2]; voltage clamp at constant V=0 mV, frequencies above about 10 Hz)	λmax em [3]	λmax em ([3]; listed as Arch)	ε633 [3]	QY (fluorescence quantum yield) [3]	QY (fluorescence quantum yield) ([3]; listed as Arch)	λmax abs [3]	Photocurrent [4]	outward photocurrent induced by imaging laser ([4]; HEK cells, 640 nm)	λmax abs ([3]; listed as Arch^D95N)	λmax abs ([3]; listed as D95N)	photocurrent / proton pumping (words) [4]	photocurrent / proton pumping (words) ([4]; listed as Arch 3 D95N)	photocurrent / proton pumping (words) ([4]; listed as D95N)
B1	10.1	about 625 μV/(Hz)^1/2	625 μV/Hz^1/2	about 55%	about 470 μV/(Hz)^1/2	687 nm	≈ 687 nm	6,300 M^−1 cm^−1	9 × 10^−4	about 9×10^−4	558 nm	yes	10-20 pA	–	–	–	–	–
B2	8.9	260 μV/(Hz)^1/2	260 μV/Hz^1/2	–	–	687 nm	–	37,500 M^−1 cm^−1	4 × 10^−4	–	585 nm	no	–	about 585 nm	585 nm	lacked endogenous proton pumping	lacks photoinduced proton pumping	eliminated the photocurrent
